{"source": "patent US20250152742A1", "about": "“COMPOSITIONS AND METHODS FOR NEUROLOGICAL DISEASES” (Trames Bio, Inc., priority 2022, published 2025)", "system": "engineered chimeric receptor SEQ ID NO: 33 and its mutants (human α7-nAChR ligand binding domain / human GlyRα1 ion pore domain) in Lenti-X 293T cells", "assay": "YFP fluorescence quenching anion reporter plate reader assay (percent quench, EC50)", "format": "cell-based", "conditions": "for YFP fluorescence quenching using CNL001 (percent quench): receptor named in row; for YFP fluorescence quenching using Varenicline, 3 nM var: ligand Varenicline 3 nM; for YFP fluorescence quenching using Varenicline, 30 nM var: ligand Varenicline 30 nM; for YFP fluorescence quenching using Varenicline, 300 nM var: ligand Varenicline 300 nM; for YFP fluorescence quenching using Varenicline, 500 nM var: ligand Varenicline 500 nM; for YFP fluorescence quenching using Varenicline, 1 uM var: ligand Varenicline 1 uM", "method_in_brief": "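Lenti-X 293T cells co-expressing an anion-quenchable YFP were transiently transfected with receptor DNA, then ligand was added in NaI-substituted buffer (pH 7.2) after 30 min at 37 °C. Fluorescence was read about 2 min; percent quench = mean of last 10 s over 15 s pre-ligand baseline.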", "data": [{"molecule": "CODA342: engineered receptor: L131R in SEQ ID NO: 33 (protein, synthetic sequence of chimeric LGIC) MRCSPGGVWLALAASLLHVSLQGEFQRKLYKELVKNYNPLERPVANDSQPLTVYFSLSLLQIMDVDEKNQVLTTNIWLQMSWTDHYLQWNVSEYPGVKTVRFPDGQIWKPDILLYNSADERFDATFHTNVRVNSSGHCQYLPPGIFKSSCPMDLKNFPMDVQTCKLKFGSWSYGGWSLDLQMQEADISGYIPNGEWDLVGIPGKRSERFYECCKEPYPDVTFTVTMRRRMGYYLIQMYIPSLLIVILSWISFWINMDAAPARVGLGITTVLTMTTQSSGSRASLPKVSYVKAIDIWMAVCLLFVFSALLEYAAVNFVSRQHKELLRFRRKRRHHKSPMLNLFQEDEAGEGRFNFSAYGMGPACLQAKDGISVKGANNSNTTNPPPAPSKSPEEMRKLFIQRAKKIDKISRIGFPMAFLIFNMFYWIIYKIVRREDVHNQ", "values": [{"measurement": "YFP fluorescence quenching using CNL001 (percent quench)", "setting": "1 nM CNL001, first column so headed", "value": 23.532, "unit": "%"}, {"measurement": "YFP fluorescence quenching using CNL001 (percent quench)", "setting": "1 nM CNL001, second column so headed", "value": 26.054, "unit": "%"}, {"measurement": "YFP fluorescence quenching using TC-5619/Bradanicline (percent quench)", "setting": "1 nM brd (TC-5619/Bradanicline)", "value": "−7.83", "unit": "%"}, {"measurement": "YFP fluorescence quenching using TC-5619/Bradanicline (percent quench)", "setting": "3 nM brd (TC-5619/Bradanicline)", "value": "−12.89", "unit": "%"}, {"measurement": "YFP fluorescence quenching using CNL001 (percent quench)", "setting": "10 nM CNL001, first column so headed", "value": 43.69, "unit": "%"}, {"measurement": "YFP fluorescence quenching using CNL001 (percent quench)", "setting": "10 nM CNL001, second column so headed", "value": 54.016, "unit": "%"}, {"measurement": "YFP fluorescence quenching using TC-5619/Bradanicline (percent quench)", "setting": "10 nM brd (TC-5619/Bradanicline)", "value": "−10.47", "unit": "%"}, {"measurement": "YFP fluorescence quenching using TC-6683 (percent quench)", "setting": "30 nM TC-6683", "value": "−16.26", "unit": "%"}, {"measurement": "YFP fluorescence quenching using TC-5619/Bradanicline (percent quench)", "setting": "30 nM brd (TC-5619/Bradanicline)", "value": 59.48, "unit": "%"}, {"measurement": "YFP fluorescence quenching using CNL001 (percent quench)", "setting": "50 nM CNL001, first column so headed", "value": 59.955, "unit": "%"}, {"measurement": "YFP fluorescence quenching using CNL001 (percent quench)", "setting": "50 nM CNL001, second column so headed", "value": 56.091, "unit": "%"}, {"measurement": "YFP fluorescence quenching using ABT-126 (percent quench)", "setting": "50 nM abt (ABT-126)", "value": "−18.14", "unit": "%"}, {"measurement": "YFP fluorescence quenching using CNL001 (percent quench)", "setting": "100 nM CNL001, first column so headed", "value": 64.536, "unit": "%"}, {"measurement": "YFP fluorescence quenching using CNL001 (percent quench)", "setting": "100 nM CNL001, second column so headed", "value": 58.987, "unit": "%"}, {"measurement": "YFP fluorescence quenching (percent quench)", "setting": "100 nM CNL002", "value": "−17.2", "unit": "%"}, {"measurement": "YFP fluorescence quenching using ABT-126 (percent quench)", "setting": "100 nM abt (ABT-126)", "value": "−18.14", "unit": "%"}, {"measurement": "YFP fluorescence quenching using AZD-0328 (percent quench)", "setting": "100 nM azd0328", "value": 1.79, "unit": "%"}, {"measurement": "YFP fluorescence quenching using TC-5619/Bradanicline (percent quench)", "setting": "100 nM brd (TC-5619/Bradanicline)", "value": 70.19, "unit": "%"}, {"measurement": "YFP fluorescence quenching using TC-6683 (percent quench)", "setting": "300 nM TC-6683", "value": "−22.45", "unit": "%"}, {"measurement": "YFP fluorescence quenching using ABT-126 (percent quench)", "setting": "300 nM abt (ABT-126)", "value": "−0.81", "unit": "%"}, {"measurement": "YFP fluorescence quenching using AZD-0328 (percent quench)", "setting": "300 nM azd0328", "value": 66.58, "unit": "%"}, {"measurement": "YFP fluorescence quenching using TC-5619/Bradanicline (percent quench)", "setting": "300 nM brd (TC-5619/Bradanicline)", "value": 75.11, "unit": "%"}, {"measurement": "YFP fluorescence quenching using ABT-126 (percent quench)", "setting": "500 nM abt (ABT-126)", "value": 23.29, "unit": "%"}, {"measurement": "YFP fluorescence quenching using CNL001 (percent quench)", "setting": "1 uM CNL001, first column so headed", "value": 65.987, "unit": "%"}, {"measurement": "YFP fluorescence quenching using CNL001 (percent quench)", "setting": "1 uM CNL001, second column so headed", "value": 64.312, "unit": "%"}, {"measurement": "YFP fluorescence quenching (percent quench)", "setting": "1 uM CNL002", "value": 8.12, "unit": "%"}, {"measurement": "YFP fluorescence quenching using ABT-126 (percent quench)", "setting": "1 uM abt (ABT-126)", "value": 45.76, "unit": "%"}, {"measurement": "YFP fluorescence quenching using TC-5619/Bradanicline (percent quench)", "setting": "1 uM brd (TC-5619/Bradanicline)", "value": 77.42, "unit": "%"}, {"measurement": "YFP fluorescence quenching using TC-6683 (percent quench)", "setting": "3 uM TC-6683", "value": "−13.48", "unit": "%"}, {"measurement": "YFP fluorescence quenching using ABT-126 (percent quench)", "setting": "3 uM abt (ABT-126)", "value": 53.03, "unit": "%"}, {"measurement": "YFP fluorescence quenching using ABT-126 (percent quench)", "setting": "10 uM abt (ABT-126)", "value": 64.08, "unit": "%"}, {"measurement": "YFP fluorescence quenching (percent quench)", "setting": "10 uM ach (acetylcholine)", "value": "−2.57", "unit": "%"}, {"measurement": "YFP fluorescence quenching (percent quench)", "setting": "30 uM CNL002", "value": 57.24, "unit": "%"}, {"measurement": "YFP fluorescence quenching using TC-6683 (percent quench)", "setting": "30 uM TC-6683", "value": "−12.68", "unit": "%"}, {"measurement": "YFP fluorescence quenching using ABT-126 (percent quench)", "setting": "30 uM abt (ABT-126)", "value": 71.98, "unit": "%"}, {"measurement": "YFP fluorescence quenching using AZD-0328 (percent quench)", "setting": "30 uM azd0328", "value": 80.55, "unit": "%"}, {"measurement": "YFP fluorescence quenching using ABT-126 (percent quench)", "setting": "50 uM abt (ABT-126)", "value": 73.98, "unit": "%"}, {"measurement": "YFP fluorescence quenching using TC-6683 (percent quench)", "setting": "100 uM TC-6683", "value": "−10.33", "unit": "%"}, {"measurement": "YFP fluorescence quenching using ABT-126 (percent quench)", "setting": "100 uM abt (ABT-126)", "value": 73.51, "unit": "%"}, {"measurement": "YFP fluorescence quenching (percent quench)", "setting": "100 uM ach (acetylcholine)", "value": "−3.18", "unit": "%"}, {"measurement": "YFP fluorescence quenching (percent quench)", "setting": "1 mM ach (acetylcholine)", "value": 78.98, "unit": "%"}, {"measurement": "YFP fluorescence quenching (percent quench)", "setting": "3 mM ach (acetylcholine)", "value": 75.75, "unit": "%"}, {"measurement": "YFP fluorescence quenching using Facinicline, 30 nM fac", "setting": "ligand Facinicline 30 nM", "value": "−6.2"}, {"measurement": "YFP fluorescence quenching using Facinicline, 300 nM fac", "setting": "ligand Facinicline 300 nM", "value": 76.75}, {"measurement": "YFP fluorescence quenching using Facinicline, 10 uM fac", "setting": "ligand Facinicline 10 uM", "value": 82.16}, {"measurement": "YFP fluorescence quenching using Facinicline, 30 uM fac", "setting": "ligand Facinicline 30 uM", "value": 81.71}, {"measurement": "YFP fluorescence quenching using TC-6987, 1 uM tc6987", "setting": "ligand TC-6987 1 uM", "value": 2.51}, {"measurement": "YFP fluorescence quenching using TC-6987, 10 uM tc6987", "setting": "ligand TC-6987 10 uM", "value": 46.22}, {"measurement": "YFP fluorescence quenching using TC-6987, 500 uM tc6987", "setting": "ligand TC-6987 500 uM", "value": 68.33}, {"measurement": "YFP fluorescence quenching using Varenicline, 3 nM var", "setting": "first column", "value": 0.271}, {"measurement": "YFP fluorescence quenching using Varenicline, 3 nM var", "setting": "second column", "value": "−3.613"}, {"measurement": "YFP fluorescence quenching using Varenicline, 30 nM var", "setting": "first column", "value": "−4.935"}, {"measurement": "YFP fluorescence quenching using Varenicline, 30 nM var", "setting": "second column", "value": "−4.363"}, {"measurement": "YFP fluorescence quenching using Varenicline, 300 nM var", "setting": "first column", "value": 0.282}, {"measurement": "YFP fluorescence quenching using Varenicline, 300 nM var", "setting": "second column", "value": 2.32}, {"measurement": "YFP fluorescence quenching using Varenicline, 500 nM var", "setting": "first column", "value": 23.777}, {"measurement": "YFP fluorescence quenching using Varenicline, 500 nM var", "setting": "second column", "value": 18.376}, {"measurement": "YFP fluorescence quenching using Varenicline, 1 uM var", "setting": "first column", "value": 66.17}, {"measurement": "YFP fluorescence quenching using Varenicline, 1 uM var", "setting": "second column", "value": 66.088}]}]}
